B1: UGT76G1var35: UGT76G1 variant, mutations T284L_F314S_S357N (protein, UniProt Q6VAB4 1-458, looked up, variant T284L F314S S357N)
UDP-glycosyltransferase 76G1: MENKTETTVRRRRRIILFPVPFQGHINPILQLANVLYSKGFSITIFHTNFNKPKTSNYPHFTFRFILDNDPQDERISNLPTHGPLAGMRIPIINEHGADELRRELELLMLASEEDEEVSCLITDALWYFAQSVADSLNLRRLVLMTSSLFNFHAHVSLPQFDELGYLDPDDKTRLEEQASGFPMLKVKDIKSAYSNWQILKEILGKMIKQTKASSGVIWNSFKELEESELETVIREIPAPSFLIPLPKHLTASSSSLLDHDRTVFQWLDQQPPSSVLYVSFGSLSEVDEKDFLEIARGLVDSKQSFLWVVRPGSVKGSTWVEPLPDGFLGERGRIVKWVPQQEVLAHGAIGAFWTHNGWNSTLESVCEGVPMIFSDFGLDQPLNARYMSDVLKVGVYLENGWERGEIANAIRRVMVDEEGEYIRQNARVLKQKADVSLMKGGSSYESLESLVSYISSL
B2: UGT76G1var46: UGT76G1 variant, mutations F22L_Q266E_I295M (protein, UniProt Q6VAB4 1-458, looked up, variant F22L Q266E I295M)
UDP-glycosyltransferase 76G1: B1 UDP-glycosyltransferase 76G1 with F22L, Q266E, L284T, I295M, S314F, N357S
B3: UGT76G1var36: UGT76G1 variant, mutations F265L_L379A_V396F (protein, UniProt Q6VAB4 1-458, looked up, variant F265L L379A V396F)
UDP-glycosyltransferase 76G1: B1 UDP-glycosyltransferase 76G1 with F265L, L284T, S314F, N357S, L379A, V396F
B4: UGT76G1var38: UGT76G1 variant, mutations F41L_I295M_F377C (protein, UniProt Q6VAB4 1-458, looked up, variant F41L I295M F377C)
UDP-glycosyltransferase 76G1: B1 UDP-glycosyltransferase 76G1 with F41L, L284T, I295M, S314F, N357S, F377C
B5: UGT76G1var45: UGT76G1 variant, mutations V279I_D301N_S389E (protein, UniProt Q6VAB4 1-458, looked up, variant V279I D301N S389E)
UDP-glycosyltransferase 76G1: B1 UDP-glycosyltransferase 76G1 with V279I, L284T, D301N, S314F, N357S, S389E
B6: UGT76G1var49: UGT76G1 variant, mutations F41L_Q266E_T284I_Y397Q (protein, UniProt Q6VAB4 1-458, looked up, variant F41L Q266E T284I Y397Q)
UDP-glycosyltransferase 76G1: B1 UDP-glycosyltransferase 76G1 with F41L, Q266E, L284I, S314F, N357S, Y397Q
B7: UGT76G1var39: UGT76G1 variant, mutations F22Y_F41L_V366I (protein, UniProt Q6VAB4 1-458, looked up, variant F22Y F41L V366I)
UDP-glycosyltransferase 76G1: B1 UDP-glycosyltransferase 76G1 with F22Y, F41L, L284T, S314F, N357S, V366I
B8: UGT76G1var44: UGT76G1 variant, mutations I335V_S375R_I407V (protein, UniProt Q6VAB4 1-458, looked up, variant I335V S375R I407V)
UDP-glycosyltransferase 76G1: B1 UDP-glycosyltransferase 76G1 with L284T, S314F, I335V, N357S, S375R, I407V
B9: UGT76G1var53: UGT76G1 variant, mutations R334K_A352G_P382M_S389E (protein, UniProt Q6VAB4 1-458, looked up, variant R334K A352G P382M S389E)
UDP-glycosyltransferase 76G1: B1 UDP-glycosyltransferase 76G1 with L284T, S314F, R334K, A352G, N357S, P382M, S389E
B10: UGT76G1var50: UGT76G1 variant, mutations F22Y_V310I_S375M_F377C (protein, UniProt Q6VAB4 1-458, looked up, variant F22Y V310I S375M F377C)
UDP-glycosyltransferase 76G1: B1 UDP-glycosyltransferase 76G1 with F22Y, L284T, V310I, S314F, N357S, S375M, F377C
B11: UGT76G1var54: UGT76G1 variant, mutations E229A_T284L_R334K_Q342E (protein, UniProt Q6VAB4 1-458, looked up, variant E229A T284L R334K Q342E)
UDP-glycosyltransferase 76G1: B1 UDP-glycosyltransferase 76G1 with E229A, S314F, R334K, Q342E, N357S
B12: UGT76G1var37: UGT76G1 variant, mutations E229A_L379G_I407V (protein, UniProt Q6VAB4 1-458, looked up, variant E229A L379G I407V)
UDP-glycosyltransferase 76G1: B1 UDP-glycosyltransferase 76G1 with E229A, L284T, S314F, N357S, L379G, I407V
B13: UGT76G1var48: UGT76G1 variant, mutations V394I_Y397E_Q432E (protein, UniProt Q6VAB4 1-458, looked up, variant V394I Y397E Q432E)
UDP-glycosyltransferase 76G1: B1 UDP-glycosyltransferase 76G1 with L284T, S314F, N357S, V394I, Y397E, Q432E
B14: UGT76G1var40: UGT76G1 variant, mutations T263S_Q266E_S375R (protein, UniProt Q6VAB4 1-458, looked up, variant T263S Q266E S375R)
UDP-glycosyltransferase 76G1: B1 UDP-glycosyltransferase 76G1 with T263S, Q266E, L284T, S314F, N357S, S375R
B15: UGT76G1var43: UGT76G1 variant, mutations S241I_P272A_V279I (protein, UniProt Q6VAB4 1-458, looked up, variant S241I P272A V279I)
UDP-glycosyltransferase 76G1: B1 UDP-glycosyltransferase 76G1 with S241I, P272A, V279I, L284T, S314F, N357S
B16: UGT76G1var42: UGT76G1 variant, mutations T263S_Q266S_R334H (protein, UniProt Q6VAB4 1-458, looked up, variant T263S Q266S R334H)
UDP-glycosyltransferase 76G1: B1 UDP-glycosyltransferase 76G1 with T263S, Q266S, L284T, S314F, R334H, N357S
B17: UGT76G1var51: UGT76G1 variant, mutations K303G_S357C_S389E_V396F (protein, UniProt Q6VAB4 1-458, looked up, variant K303G S357C S389E V396F)
UDP-glycosyltransferase 76G1: B1 UDP-glycosyltransferase 76G1 with L284T, K303G, S314F, N357C, S389E, V396F
B18: UGT76G1var41: UGT76G1 variant, mutations L246F_A385T_K393G (protein, UniProt Q6VAB4 1-458, looked up, variant L246F A385T K393G)
UDP-glycosyltransferase 76G1: B1 UDP-glycosyltransferase 76G1 with L246F, L284T, S314F, N357S, A385T, K393G
B19: UGT76G1var52: UGT76G1 variant, mutations D301N_I373L_F377C_I407V (protein, UniProt Q6VAB4 1-458, looked up, variant D301N I373L F377C I407V)
UDP-glycosyltransferase 76G1: B1 UDP-glycosyltransferase 76G1 with L284T, D301N, S314F, N357S, I373L, F377C, I407V
B20: UGT76G1var1: UGT76G1 variant, mutations E224A_F314S_R334K (protein, UniProt Q6VAB4 1-458, looked up, variant E224A F314S R334K)
UDP-glycosyltransferase 76G1: B1 UDP-glycosyltransferase 76G1 with E224A, L284T, R334K, N357S
B21: UGT76G1var47: UGT76G1 variant, mutations E229A_T284I_S389E (protein, UniProt Q6VAB4 1-458, looked up, variant E229A T284I S389E)
UDP-glycosyltransferase 76G1: B1 UDP-glycosyltransferase 76G1 with E229A, L284I, S314F, N357S, S389E

Substitutions are numbered along the chain they refer to.

This series in a line: Directed evolution of UGT76G1, Rebaudioside D to Rebaudioside M, round 1 (Example 26). Type of series: biochemical. Conditions: 100 μL fresh lysate, 0.5 mM Rebaudioside D, 30° C., pH 7.2. Here is the method:
Lysis was performed by addition of Bugbuster® Master mix (Novagen®) to the thawed cells and the lysate was recovered by centrifugation. Activity tests were performed with 100 μL of fresh lysate that was added to a solution of Rebaudioside D (final concentration 0.5 mM), MgCl2 (final concentration 3 mM) and UDP-Glucose (final concentration 2.5 mM) in 50 mM phosphate buffer pH 7.2.
The reaction was allowed to run at 30° C. and samples were taken after 2, 4, 7 and 24 h. to determine conversion and initial rate by HPLC (CAD detection) using the analytical method that was described above for the transformation of Rebaudioside D to Rebaudioside M. The results are depicted in the following table.
For the molecule B1, the “conversion Reb D to Reb M after 24 h” value is given as 0.5% and the initial rate is recorded as 1.8E+05 Reb M area/min.

For B2, the “conversion Reb D to Reb M after 24 h” value amounted to 0.6% and the initial rate stood at 9.8E+05 Reb M area/min.

For the molecule B3, the “conversion Reb D to Reb M after 24 h” value was found to be 20.0% and the initial rate is on record as 8.8E+06 Reb M area/min.

In the case of B4, the “conversion Reb D to Reb M after 24 h” value stood at 8.2% and the initial rate is listed as 3.7E+06 Reb M area/min.

Consider B5, for which the initial rate worked out at 2.3E+07 Reb M area/min.

Consider B6, for which the “conversion Reb D to Reb M after 24 h” value came to 2.6% and the initial rate was 1.1E+06 Reb M area/min.

As to B7, the “conversion Reb D to Reb M after 24 h” value was found to be 7.2% and the initial rate was 3.3E+06 Reb M area/min.

Regarding B8, the initial rate is 2.3E+07 Reb M area/min.

Consider B9, for which the “conversion Reb D to Reb M after 24 h” value was 9.3% and the initial rate is 4.1E+06 Reb M area/min.

For the molecule B10, the “conversion Reb D to Reb M after 24 h” value was determined as 1.9% and the initial rate was found to be 7.9E+05 Reb M area/min.

B11: the “conversion Reb D to Reb M after 24 h” value is 0.7% and the initial rate was found to be 4.3E+05 Reb M area/min.

B12: the initial rate came to 2.8E+07 Reb M area/min.

Molecule B13 returned an initial rate of 3.8E+07 Reb M area/min.

In turn, B14 showed an initial rate of 3.3E+07 Reb M area/min.

In the case of B15, the initial rate worked out at 9.4E+06 Reb M area/min.

The molecule B16 showed an initial rate of 2.2E+07 Reb M area/min.

In turn, B17 gave an initial rate of 9.5E+06 Reb M area/min.

On to B18, for which the “conversion Reb D to Reb M after 24 h” value stood at 0.8% and the initial rate turned out to be 1.4E+06 Reb M area/min.

On to B19, for which the initial rate is on record as 4.6E+06 Reb M area/min.

In turn, B20 displayed an initial rate of 5.5E+07 Reb M area/min.

Regarding B21, the “conversion Reb D to Reb M after 24 h” value amounted to 4.8% and the initial rate came out at 2.7E+06 Reb M area/min.

Source of the values: patent publication US11653679B2, “High-purity steviol glycosides” (PureCircle Sdn Bhd, priority 2014, dated 2023).
